In patent publication US20240109937A1 (Johns Hopkins, published 2024):
Bridge positions count the residues as written; N and C are the ends. Square brackets hold non-standard residues; d marks the D form. Ends that are not written are not given here. Lys(N3) = [N-]=[N+]=NCCCC[C@H](N)C(=O)O; hArg = N=C(N)NCCCC[C@H](N)C(=O)O; Tle = CC(C)(C)[C@H](N)C(=O)O; Hpra = C#CCC[C@H](N)C(=O)O; Nle = CCCC[C@H](N)C(=O)O

Biological target: T1, Peptidylprolyl isomerase A (PPIA), also known as cyclophilin A (CypA) (UniProt P62937 1-165)
T1 construct: Protein used for the in vitro KD/IC50 values
Test: printed as 'Disrupts the complex AIF/Cyclophilin with a KD'; method not stated

T1 sequence (P62937 whole entry): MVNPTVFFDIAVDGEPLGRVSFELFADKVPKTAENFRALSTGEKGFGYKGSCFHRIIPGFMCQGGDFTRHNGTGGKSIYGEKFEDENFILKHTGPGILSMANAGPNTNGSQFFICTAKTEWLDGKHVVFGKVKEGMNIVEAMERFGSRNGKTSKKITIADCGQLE

Kd [µM]	Binder
~0.8	Ac-QSCGVSSG[Lys(N3)]LLCKLKDGRKV[Hpra]TDHI-NH2 (disulfide 3-12; triazole 9-21, also called stapled AIF (370-394) analog) [AIF (370-394)-stapled peptides]

Biological target: T1, Peptidylprolyl isomerase A (PPIA), also …
Test: binding to CypA; method not stated

Kd [µM]	Binder
~5	Ac-QSVGVSSGKLLIKLKDGRKVETDHI-NH2 (also called AIF mimetic peptide (amino acids 370-394)) [AIF (370-394)]

Biological target: T1, Peptidylprolyl isomerase A (PPIA), also …
Test: disruption of the AIF/Cyclophilin complex in living cells and in vitro; method not stated

IC50 [µM]	Binder
5	Ac-QSVGVSSGKLLIKLKDGRKVETDHI-NH2 (also called AIF mimetic peptide (amino acids 370-394)) [AIF (370-394)]

Biological target: T1, Peptidylprolyl isomerase A (PPIA), also …
Test: printed as 'disrupts the complex AIF/Cyclophilin with a KD'; method not stated

Kd [µM]	Binder
~2	Ac-CIKLKDGRKVC-NH2 (disulfide 1-11; SMILES CC[C@H](C)[C@@H]1NC(=O)[C@@H](NC(C)=O)CSSC[C@@H](C(N)=O)NC(=O)[C@H](C(C)C)NC(=O)[C@H](CCCCN)NC(=O)[C@H](CCCNC(=N)N)NC(=O)CNC(=O)[C@H](CC(=O)O)NC(=O)[C@H](CCCCN)NC(=O)[C@H](CC(C)C)NC(=O)[C@H](CCCCN)NC1=O) [AIF (381-389) ox]
~1	Ac-CIKLKLLRKVC-NH2 (disulfide 1-11; SMILES CC[C@H](C)[C@@H]1NC(=O)[C@@H](NC(C)=O)CSSC[C@@H](C(N)=O)NC(=O)[C@H](C(C)C)NC(=O)[C@H](CCCCN)NC(=O)[C@H](CCCNC(=N)N)NC(=O)[C@H](CC(C)C)NC(=O)[C@H](CC(C)C)NC(=O)[C@H](CCCCN)NC(=O)[C@H](CC(C)C)NC(=O)[C@H](CCCCN)NC1=O) [AIF (381-389) LLox]

Biological target: Apoptosis-inducing factor (AIF) protein (UniProt O95831 122-613, limits assumed)
Test: printed as 'Disrupts the complex AIF/Cyclophilin with a KD'; method not stated; target taken as AIF

Chain of Apoptosis-inducing factor (AIF) protein (O95831 122-613 limits assumed): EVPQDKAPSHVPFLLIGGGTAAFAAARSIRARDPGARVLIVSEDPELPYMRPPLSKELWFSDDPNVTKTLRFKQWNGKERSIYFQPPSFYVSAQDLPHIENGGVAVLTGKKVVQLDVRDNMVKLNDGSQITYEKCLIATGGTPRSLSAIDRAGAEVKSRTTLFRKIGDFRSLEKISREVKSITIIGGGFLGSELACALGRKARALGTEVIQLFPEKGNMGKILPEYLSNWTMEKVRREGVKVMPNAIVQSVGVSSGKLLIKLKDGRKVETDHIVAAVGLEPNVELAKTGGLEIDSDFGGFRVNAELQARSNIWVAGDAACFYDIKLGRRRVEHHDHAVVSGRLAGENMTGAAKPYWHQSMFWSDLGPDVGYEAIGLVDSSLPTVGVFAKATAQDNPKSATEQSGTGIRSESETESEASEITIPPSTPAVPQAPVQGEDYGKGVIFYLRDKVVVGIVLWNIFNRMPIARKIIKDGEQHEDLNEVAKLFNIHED

Kd [µM]	Binder
~6	Ac-RIIPGFMCQGGDFTR-NH2 [CypA (55-69)]

Biological target: T1, Peptidylprolyl isomerase A (PPIA), also …
Test: KD 'determined', method not stated; target not given, taken as CypA

Binder	Kd [µM]
CIKLKL[Tle]RKVC (disulfide 1-11, X stands for the non-natural residue) [Cyclic peptide derived from Formula (I), X5-X6: L- Tle]	151
CI[hArg]LKDGRKVC (disulfide 1-11; also: Y1 can be H (free N-terminus), Y2 can be amino (C-terminal amide), Only the changed residues are printed; X stands for the non-natural residue) [Cyclic peptide derived from Formula (I), X2: hR]	80.3
CIKLKL[Nle]RKVC (disulfide 1-11, X stands for the non-natural residue) [Cyclic peptide derived from Formula (I), X5-X6: L- Nle]	23.9
CIKLKIIRKVC (disulfide 1-11) [Cyclic peptide derived from Formula (I), X5-X6: I-I]	58.9
CIKLKILRKVC (disulfide 1-11) [Cyclic peptide derived from Formula (I), X5-X6: I-L]	89.9

More lines, now with the values ahead:

Kd [µM]	Binder
30.7	CIKLK[Nle]LRKVC (disulfide 1-11, X stands for the non-natural residue) [Cyclic peptide derived from Formula (I), X5-X6: Nle -L]
22.9	CIKLK[Nle][Nle]RKVC (disulfide 1-11, X stands for the non-natural residue) [Cyclic peptide derived from Formula (I), X5-X6: Nle-Nle]
147	CIKLK[Tle]LRKVC (disulfide 1-11, X stands for the non-natural residue) [Cyclic peptide derived from Formula (I), X5-X6: Tle-L]
13.6	CIKLK[Tle][Tle]RKVC (disulfide 1-11, X stands for the non-natural residue) [Cyclic peptide derived from Formula (I), X5-X6: Tle-Tle]
7.57	CIKLKLVRKVC (disulfide 1-11) [Cyclic peptide derived from Formula (I), X5-X6: L-V]
233	CIKLKLIRKVC (disulfide 1-11) [Cyclic peptide derived from Formula (I), X5-X6: L-I]
268	CIKLKVVRKVC (disulfide 1-11) [Cyclic peptide derived from Formula (I), X5-X6: V-V]
37.6	CIKLKVLRKVC (disulfide 1-11) [Cyclic peptide derived from Formula (I), X5-X6: V-L]
1.2	CIKLKLLRKVC (disulfide 1-11) [Cyclic peptide derived from Formula (I), X5-X6: L-L]
